Results as given in patent US20150011421.

Assays:
[1] = test system: H2N-(CH2)4-CO-(SEQ ID NO:1)-NH-CH2-Fc
[2] = test system: H2N-(CH2)4-CO-(SEQ ID NO:2)-NH-CH2-Fc
[3] = test system: H2N-(CH2)4-CO-(SEQ ID NO:5)-NH-CH2-Fc
[4] = test system: T1, Biotin-AEEEIYGEFEAKKKKC (SEQ ID NO:4)
T1 sequence: AEEEIYGEFEAKKKKC

[5] = target: T2, H2N-(CH2)4-CO-(SEQ ID NO:1)-NH-CH2-Fc
T2 chain: AANL

[6] = target: T3, Z-Ala-Ala-Asn-AMC
T3 chain: AAN

[7] = target: T4, Biotin-AEEEIYGEFEAKKKKC (SEQ ID NO:4), fully phosphorylated by c-Src kinase
T4 chain: AEEEIYGEFEAKKKKC

Q: What does the source list for “Purified recombinant human cathepsin B (R&D Systems), activated in 5 mM DTT and 25 mM MES buffer (pH 5.0)”?
A: ACV peak current after adding activated cathepsin B (negative control) [1]: The peak current ip,acv of these two tetrapeptides did not show the characteristic exponential decay while the activated cathepsin B was added; cleavage product by HPLC/MS after 2 h incubation in solution [2]: The cleavage product, Phe-Gly-NH-CH2-Fc appeared at 37 min, was found confirming that the proteolysis took place at the arginine site; ACV peak current after adding activated cathepsin B (negative control, P1 Arg replaced by Asn) [3]: The peak current ip,acv of these two tetrapeptides did not show the characteristic exponential decay while the activated cathepsin B was added

Q: “Active c-Src kinase protein (N-terminal 6His-tagged recombinant human c-Src, molecular weight 61.7 kDa)” was tested. Which “phosphorylation of the immobilized peptide” value [4] did it give?
A: The peptide at the VACNF NEA was fully phosphorylated with 1-hour further incubation in c-Src kinase solution

B1: Recombinant human legumain/asparaginyl endopeptidase (R&D Systems), activated in 50 mM CH3COONa (pH 4.0) and 100 mM NaCl (protein)
chain: VPIDDPEDGGKHWVVIVAGSNGWYNYRHQADACHAYQIIHRNGIPDEQIVVMMYDDIAYSEDNPTPGIVINRPNGTDVYQGVPKDYTGEDVTPQNFLAVLRGDAEAVKGIGSGKVLKSGPQDHVFIYFTDHGSTGILVFPNEDLHVKDLNETIHYMYKHKMYRKMVFYIEACESGSMMNHLPDNINVYATTAANPRESSYACYYDEKRSTYLGDWYSVNWMEDSDVEDLTKETLHKQYHLVKSHTNTSHVMQYGNKTISTMKVMQFQGMKRKASSPVPLPPVTHLDLTPSPDVPLTIMKRKLMNTN
Q: Which “(kcat/Km)[E0], slope of reaction rate vs. surface adsorbed Fc, [E0]=773 nM” value [5] does the source give for B1 here?
A: a slope of 6.32×10^-4 s^-1

Q: What about the “(kcat/Km)[E0], slope of vi vs. Γsurf, [E0]=80.1 nM” value [5] of the same molecule?
A: the slope of 6.30×10^-4 s^-1 at [E0]=80.1 nM

Q: What about the specificity constant kcat/KM (electrochemistry, EC, VACNF NEAs) [5] of the same molecule?
A: 11300 M⁻¹ s⁻¹

Q: And the “specificity constant kcat/Km (ACV on VACNF NEA), as given in the summary of Example 1” value [5]?
A: 8200 M⁻¹ s⁻¹

Q: What about the “specificity constant kcat/Km (ACV, single experiment at 80.1 nM)” value [5] of the same molecule?
A: 7900 M⁻¹ s⁻¹

Q: What about the “time constant in the fit of surface adsorbed Fc vs. time” value [5] of the same molecule?
A: the time constant is 1101 s (~48 min)

Q: And the “time constant of the exponential decay of the ACV peak current after adding legumain” value [5]?
A: The time constant is 1076 s (~18 min.)

Q: What about the specificity constant kcat/KM (fluorescence assay, FL) [6] of the same molecule?
A: 4300 M⁻¹ s⁻¹

B2: PTP1B (residues 1-322, molecular weight 37.4 kDa) (protein)
chain: MEMEKEFEQIDKSGSWAAIYQDIRHEASDFPCRVAKLPKNKNRNRYRDVSPFDHSRIKLHQEDNDYINASLIKMEEAQRSYILTQGPLPNTCGHFWEMVWEQKSRGVVMLNRVMEKGSLKCAQYWPQKEEKEMIFEDTNLKLTLISEDIKSYYTVRQLELENLTTQETREILHFHYTTWPDFGVPESPASFLNFLFKVRESGSLSPEHGPVVVHCSAGIGRSGTFCLADTCLLLMDKRKDPSSVDIKKVLLEMRKFRMGLIQTADQLRFSYLAVIEGAKFIMGDSSVQDQWKELSHEDLEPPPEHIPPPPRPPKRILEPHNG
Q: For B2, which “(kcat/Km)[E0], slope of -d(|Z|/|Z0|)/dt vs. |Z|/|Z0|, [E0]=2.4 nM” value [7] is on record?
A: a slope of 0.0522 s^-1

Q: And the “decrease in |Z| (REIS) over ~100 s after adding 2.4 nM PTP1B” value [7]?
A: A sharp decrease in |Z| by ~1,150Ω (~6.3%)

Q: What about the “decrease in |Z| (REIS) over ~100 s after adding 2.4 nM PTP1B, percent” value [7] of the same molecule?
A: A sharp decrease in |Z| by ~1,150Ω (~6.3%)

Q: What about the “specificity constant kcat/Km (REIS, 2.4 nM PTP1B)” value [7] of the same molecule?
A: 2.2e+07 M⁻¹ s⁻¹

Q: And the “specificity constant kcat/Km (REIS, average of 7 data sets at three PTP1B concentrations)” value [7]?
A: an average value of 2.1×10^7 M^-1 s^-1 and a standard deviation of 1.0×10^6 M^-1 s^-1
